Measured values from the supplement of paper PMC10126150.
± gives the standard deviation of the averaged measurements.

system: ATP; test: switch fluorescence ratio, 500 uM ATP over buffer (Cy3 cluster intensity, sum of 5 cycles each) (fold (ratio)); higher = stronger signal-on switching upon ATP binding; sequences stand for … in TCGTCGGCAGCGTCAGATGTGTATAAGAGACAGTTTTTTTTTTTTTTTTTTTTTTTTT…TC; conditions: aptamer strand: ATP DNA aptamer (quencher-CACCTGGGGGAGTATTGCGGAGGAAGG + anchor), 100 nM annealed; ATP concentration: 500 uM
In short: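 Cy3-labelled switching-strand clusters on a modified Illumina MiSeq flow-cell were annealed to 100 nM quencher-labelled ATP aptamer, imaged in selection buffer, then imaged after 15 min with 500 uM ATP at 22 °C. Five buffer/ATP cycles ran, with NaOH stripping and re-annealing between them. The fluorescence ratio is summed target-cycle over summed buffer-cycle Cy3 intensity per cluster, averaged per switch-domain sequence. Clusters outside 100-1000 RFU were excluded.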
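Also: ATP exposure 15 min at 22 °C before imaging.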

Sequence | switch fluorescence ratio
GGGAATGTAA | 0.973 ± 0.036
AGTCAATTAG | 1.04 ± 0.012
TCATTCCTTT | 1.008 ± 0.0063
TAGAGTCTTT | 0.994 ± 0.013
TTTAAAAGCT | 1.07 ± 0.038
AAGGCGGGGT | 0.997 ± 0.033
AGATTCAATA | 0.991 ± 0.016
TCTCTTTCTG | 0.9729 ± 0.0073
CTTGGAGGGG | 1.0187 ± 0.00015
TACTCATTGT | 1.03 ± 0.021
GGCCGGCGTG | 0.969 ± 0.031
AATGGCGGCC | 1.03 ± 0.039
GGGTCAGGTA | 0.996 ± 0.03
TGGGGAACTT | 1.03 ± 0.041
GAGGGCACTG | 0.956 ± 0.023
CGGACAGGAG | 0.98 ± 0.051
TTAGTAGTTG | 1.02 ± 0.028
TTATCACTGG | 1 ± 0.07
CATCGATGTT | 1.025 ± 0.0064
ACCCTAGACG | 1.03 ± 0.045
TTAGGCGCCG | 0.994 ± 0.054
TCGGAATAGA | 1.22 ± 0.26
CGTAGCACAG | 1.3067 ± 0.0013
TAAAAATTGG | 0.997 ± 0.014
GAGGGGTTCT | 0.984 ± 0.043

Sequence | switch fluorescence ratio
GGGTCCTGCG | 1.04 ± 0.019
TTAAAAGTTA | 1.03 ± 0.044
TTGGGGCAGC | 0.995 ± 0.013
TTCTTTGGCT | 0.977 ± 0.018
GGGAAATTTG | 0.991 ± 0.026
GGCTGTACAC | 1.0831 ± 0.001
TTTTGATGAC | 1.01 ± 0.047
TAAGTTGGTG | 0.976 ± 0.018
GCTGCGGGCT | 1.18 ± 0.24
ACCAGCTTTC | 1.16 ± 0.015
TTTTCATTGG | 0.985 ± 0.026
TTATTTCAAC | 0.9728 ± 0.0052
TTGGCACAGT | 1.008 ± 0.0048
ATACCGAGGA | 1.04 ± 0.051
TGGCAGGTTG | 1.01 ± 0.013
AAGTGAGGGG | 0.998 ± 0.028
AATGGCCTA | 1.03 ± 0.046
GAGTCGGATG | 0.967 ± 0.012
TTACCAGTCT | 1 ± 0.046
TTAATGTATT | 0.995 ± 0.016
AAACGAGGGT | 1.02 ± 0.03
CGGGTGAGGA | 1.04 ± 0.04
GTATGAAGGG | 0.9756 ± 0.0049
GGGGCGCGGT | 1.025 ± 0.0058
TCGAAAGGCA | 1.04 ± 0.031

Sequence | switch fluorescence ratio
TCAATAGAAT | 1.06 ± 0.14
CGTTTTTTAG | 0.99 ± 0.022
GCTAGGCTGG | 0.97301 ± 0.0002
GCAAGACATT | 1.12 ± 0.019
ACGGGTTTGG | 1.01 ± 0.023
CATATCTAAG | 1.002 ± 0.0019
AACTGTGTTT | 0.983 ± 0.04
AGTGGCTTTT | 1.002 ± 0.0081
CATTAGGTGT | 1.16 ± 0.037
GTGTTGGATG | 0.958 ± 0.069
TTTTTTAGC | 1.02 ± 0.03
TTCGGGGCCA | 0.991 ± 0.013
GTTTTGGTTG | 1.01 ± 0.027
TTTGACGACT | 1.01 ± 0.025
TTGGCTTTAT | 0.982 ± 0.04
GGGTTATATT | 0.988 ± 0.024
TACGGGAGTC | 1.06 ± 0.16
GAGTCAGAGG | 0.989 ± 0.039
TTAAACGTTA | 1.32 ± 0.44
ACAGGAGCGT | 1.1017 ± 0.00065
TATAGTGCGT | 0.978 ± 0.03
ACTCGAGGGG | 1.01 ± 0.041
AAACATAAGC | 0.991 ± 0.038
TTTGTTTCTT | 0.977 ± 0.032
TTGTTTCTCT | 0.959 ± 0.016

Sequence | switch fluorescence ratio
AGGTTGAGAG | 0.9515 ± 0.0075
ACTACTACTT | 1.16 ± 0.019
TGGGGGGAGC | 1 ± 0.022
TTCAGTTGGT | 0.987 ± 0.017
CGGTCCAATC | 1.37 ± 0.052
AGGTTAGGGC | 0.984 ± 0.018
GTTCGACCCG | 1.02 ± 0.032
ATTTGTTAAG | 1 ± 0.016
AATAGCTAGT | 0.99272 ± 0.00015
ACCATCAAGG | 0.9815 ± 0.0016
ATAGCTGATT | 0.983 ± 0.034
TTGCCGTGTA | 1.02 ± 0.031
CAGGTATGAA | 1 ± 0.02
AGATACTTGA | 1.01 ± 0.014
GCCCGGGGGA | 1.94 ± 1.3
TAGTAATGGT | 1.032 ± 0.0084
GGTGATACGC | 1.001 ± 0.0035
GGATGGGGCC | 0.995 ± 0.032
TGCTAAATTA | 1.01 ± 0.011
AGGGGTAAGG | 1.03 ± 0.033
AAAGGGTAAT | 0.984 ± 0.018
CAGCTGGTAT | 0.9992 ± 0.0011
TAGTTTTATA | 1.016 ± 0.009
ATTTTTAGAA | 1.03 ± 0.013
AAAATGCGTG | 0.966 ± 0.059

Sequence | switch fluorescence ratio
TTGAATTCGG | 0.9841 ± 0.0039
GCAGGGACCC | 1.12 ± 0.12
AACAGTGAGC | 1.039 ± 0.0056
CCAGCGGCCA | 1.02 ± 0.025
CAGGAAAATG | 0.994 ± 0.041
TTAAACTTAG | 0.992 ± 0.03
AATCAGCGGT | 1.02 ± 0.028
GCGAGGTGGT | 1.001 ± 0.0076
AGTGGAAGGG | 0.957 ± 0.027
CCTTACGGCA | 1.53 ± 0.068
CAGCTGCATT | 1.305 ± 0.013
AATTAGATAC | 1.12 ± 0.074
CGGTTGGCGG | 0.996 ± 0.038
TATTTGTGGG | 0.9845 ± 0.0083
GGGCCGGGAG | 0.984 ± 0.02
TGGGAGGAAA | 1.01 ± 0.039
CTTATTTGGT | 0.992 ± 0.035
GCTCGTTTGG | 0.9745 ± 0.0041
TTGGTAGGTG | 1.04 ± 0.058
AGATGGCTAG | 0.999 ± 0.018
GTTTAGTTTG | 0.992 ± 0.044
TGAAAGCCCG | 1.048 ± 0.0056
GGTGTTAGTC | 1.02 ± 0.036
GGGGGGATCA | 0.985 ± 0.026
GGGTTGTGTG | 0.991 ± 0.11

Sequence | switch fluorescence ratio
ATGTTGGGAA | 0.978 ± 0.029
ATAGGCCGTA | 1.03 ± 0.045
GGGGGTCTGG | 0.9855 ± 0.0097
GAAAAAGCGT | 1.07 ± 0.03
GATAGTTCGC | 1.01 ± 0.015
AATTTATCCG | 1.02 ± 0.059
AGTTACGGTG | 1 ± 0.025
ACATCCGGAC | 1.343 ± 0.011
AATGGGGTAC | 1.009 ± 0.0087
TTCCAATAAG | 1.01 ± 0.02
TTTCCTGGGC | 1.37 ± 0.61
TTTTTTACCT | 1.2 ± 0.015
GACTAATTGG | 0.957 ± 0.013
GGGGATGCGA | 1.09 ± 0.1
ATCATAGCCG | 1.07 ± 0.14
GGACATTATA | 1.031 ± 0.0056
CACCCTTTGT | 0.9912 ± 0.0036
CGAGGGGATT | 1.25 ± 0.54
TAAAGGCACG | 1.03 ± 0.07
TGCTTACTTT | 1.33 ± 0.58
GCATTGGTGG | 1.03 ± 0.019
AAGCCAGGCC | 1.03 ± 0.025
GGGTCCATTT | 1.01 ± 0.037
GGAATGCCGG | 1.02 ± 0.021
GGGTTGATGC | 1.02 ± 0.041

Sequence | switch fluorescence ratio
ATGGGGGTGC | 0.99 ± 0.026
TCAATAATCG | 1.01 ± 0.055
ATGGAGGGGT | 1 ± 0.045
TTTACGTAGG | 1 ± 0.024
TGGTTGTGCG | 1.04 ± 0.018
TTTCGCGTGG | 0.971 ± 0.028
TACTTAGGTG | 1.17 ± 0.12
TGTTTTTCTT | 1.01 ± 0.033
ATTGGCGTGG | 1.01 ± 0.019
ATAATATTTT | 1.031 ± 0.0028
TTCAACTTAT | 0.954 ± 0.049
GCCTATGCAA | 1.48 ± 0.021
GCTACCGTTT | 1.04 ± 0.041
TGTGACGAAC | 1.23 ± 0.045
CCTTTTGGTG | 1.38 ± 0.44
AGAAAGGGCA | 1.04 ± 0.03
TGGGTATAAC | 1 ± 0.018
GGGCCTGGGA | 1.01 ± 0.012
GGTGTGGCGT | 1 ± 0.018
GGGGTGGAGG | 1.02 ± 0.017
TTTGTGAGAA | 1.02 ± 0.0045
GGGTGCGTTC | 0.964 ± 0.027
GGATTATTTT | 1 ± 0.012
TAGGGAATTA | 1.01 ± 0.012
CAAAAAGAGC | 0.976 ± 0.015

Sequence | switch fluorescence ratio
CGAGGTGGCT | 1.01 ± 0.028
ATATTAATTT | 0.989 ± 0.023
GTTGTATACT | 0.993 ± 0.076
GCAAGAGGGT | 1 ± 0.028
TATTTGGTTT | 1 ± 0.017
GTTTGGGGAG | 0.977 ± 0.018
AAGGTAGGGC | 1.014 ± 0.008
TTTCTCGTAC | 1.11 ± 0.012
ATAGGTGTTG | 1.02 ± 0.025
GTTGACTTAA | 1.02 ± 0.013
TGATTGGTAA | 0.939 ± 0.021
ATTTGGGACA | 1.01 ± 0.012
TGTACTATGC | 1.06 ± 0.058
TAGGTGGAAA | 0.992 ± 0.042
GGCAGCCGGT | 1 ± 0.036
GGCTATCAAA | 1.01 ± 0.018
GATGGTTAAC | 1.01 ± 0.0045
ATGTTTATCT | 0.979 ± 0.044
TGGGGTAAAG | 1.01 ± 0.033
TTAGGCAGGT | 0.994 ± 0.048
TTTTGGAGAA | 1.02 ± 0.037
TTATGTCCGG | 1.02 ± 0.025
ATCGGGGCGG | 0.993 ± 0.031
CCGCCGAGGT | 1.68 ± 0.034
TATACGGCCG | 1 ± 0.0059
